# Measured values reported in the nanobody polyreactivity screen of Harvey et al. (2022).
# Assay: yeast display, Sf9 membrane polyspecificity reagent, FACS + sequencing; frameworks hold sequencing errors
# Outline: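 A synthetic nanobody library was expressed on Saccharomyces cerevisiae BJ5465 by galactose induction for 36–48 hours. The library was stained for 1 hour at 4 °C with 10% biotinylated, detergent-solubilized Sf9 membrane reagent and enriched with streptavidin microbeads before FACS. Low and high (top ~1%) gates were set on anti-HA fluorescence for expression and streptavidin fluorescence for reagent binding, and each polyreactivity label reflects the gate of origin.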
row,Sequence,polyreactivity (PSR sort gate)
1,QVQIVESGGGLVQAGGSLRLSCADSGFISSHYAMGWYRQAPGKERELVAAISTNGGSTYYADSVKGRFTISRDNAKNTVYLQMNSLKPEDTSVYYCAAEFAVSFYWSWLGQDYNYWGQGTQVTVSS,high polyreactivity
2,QVQLVESGGGLVQAGGSLRLSCAASGSIFRKYAMGWYRQAPGKERELVARISSGGRTYYADSVKGRFTISRDNAKNTVYLQMNSLKPEDTAVYFCAAAYYQRGRYSWGQGSQVTVSS,high polyreactivity
3,QVQLVESGGGLVQAGGSLRLSCAASGRTYRVYAMGWYRQAPGKERELVASITRGGGTYADSVKGRFTISRDNAKNTVYLQMNSLKAEDTAVYYCNARWHRSTGGRQRYDYWGQGTQVTVSS,high polyreactivity
4,QVQLVESGGGLVQAGGSLRLSCAASGFIFSYYAMGWYRQAPGKERELVAAISISGGSTYYADSVKGRFTISRDNAKTTVYLQMNSLKPEDTAVYYCNKAPRYPYGGYDYWGQGTQVTVSS,low polyreactivity
5,QVQLVESGGGLVQAGGSLRLSCAASGLTFRFYTMGWDRQAPGKERELVAAISTSGGSTYYADSVKGRFTISRDNAKNTVYLQMNSLKPEDTAVYYCNAVYALNGYDYWGQGTQVTVSS,low polyreactivity
6,QVQLVESGGGLVQAGGSLRLSCAASGRTFTRYAMGWYRQAPGPERELVAASRWSGTRTYYAVSVKGRITISRDNAKNTVDLQMNSLTPEDTAVYYCAARDRVYPDYGYWGQGTQVTVSS,high polyreactivity
7,QVQLVESGGGLDQAGGSLRLSCAACGIIFYVYDMGGYRQAPGKERELVPISGSSTYYADSVKGRFTISRDNAKNSVYLQMNSLKPEDTAVYYWSADGVELYDYWGQGTQVTVSS,low polyreactivity
8,QVQIVESGGGLVQAGGSLRLSCAASGSIFFYYSMGWYRQAPGKERELVAAISVGGSTYYADSVKGRFTISRDNAKNTVYLQMNSLKPEDTAVYSFNAVPAKGYVTVVRYYYWGQGTQVTVSS,low polyreactivity
9,QVQLVDSGGGLVQAGGSLCLSCPASGGTSRVNAMGWYRQAPGKETELVARIRSGGSTYYADSVKGRFTISRDNAKNTVYFKMNRLKPEDTAVYHCAAVPRRTGQQQDMDYWGQGTQVTVSS,high polyreactivity
10,QGQLVESGGGLVQAGGILLLSCAASGIIFLYYAMGWYRQAPGKERELVAAITSGGSTYYADSVKGRFTISRDNAKNTVYLQMNSLKPEDTAVYYCNAPYHGREYEWGQGTQVTVSS,high polyreactivity
11,QVQLVESGGGLVQAGGRHRLSCAASGRTFGVYAMGWYRQAPGKEREFVGVISWSDDSTYYADSVKGRFTISRDNAKNTVSLQMNSLKPEDTAVYYCNADDYLVYSGSHYGYWGQGTQVTVSS,low polyreactivity
12,QVQLVESGGGLVQAGGSLRLSCASSGRTFPGNAMGWYRQAPGKERELVATISSGGTTNYADSVKGRFTISRDNAKNTVYLQMNSLKPDDTAFYYCATDTYHHKADYEYWGQGTQVTLSS,low polyreactivity
13,QVQLEESGGGLVQAGGSLRLSCASYGSIFGHYAMGLYRQAPGKARELVAGISKSGGRTYDADSVKGRFTISRDNAKNTVFLQMNSLKPEDTAVYYCNALVTRYQSLDRLGDYWGQGTQVTVSS,high polyreactivity
14,QVHLQESAGGLVQAGGSLRLTCSASGYISFDASMGWYRQAPGKERELAASIPKGSSTNYADSVKGRFTIRDNATITVYLQMNSLQPEDTAVCYCAVTYPYWGDYTYWGQGTQVTVSC,low polyreactivity
15,QVQFVESGGGLVQAGGSLRLSCAASGFTFVWYDMGGYRQAPGKERELVAAISSGGSTYYADSVKGRFTISRDNAKNTVYLQMNSLKPEDTAVYYCAVYTGYYNYIYQYDYWGQGTQVTVSS,low polyreactivity
16,QVQLVESGGGLVQAGGSLRLSCAASGRILAYYAMGWYRQAPGKERELVAAITSGGRTYYADSVKGRFTISRDNAKNTVYLQMNSLKPEDTPVYYCNAVYGYWYGSWGQGTQVTVSS,high polyreactivity

row,Sequence,polyreactivity (PSR sort gate)
1,QVQLVESGAGLVQAGGSLRLSCAASGSIFYDYAMGVYRQAPGKERELVAAISSSGITYYADSVKGRFTISRDNAKNTVYLQMNSLKPVDTAVYYCNARSYLRDYYYWGQGTQVTVSS,high polyreactivity
2,QVQLEESGGGLVQAGGSLRLSCAASGRIFIAYTMGWYRQAPGKERELVAAITWNGGSTYYADSVKGRFTISRDNAMNTVYLQMNSLKPEDTAVYYWVLVSRPGPKPAREMDYWGQGTQVTVSS,low polyreactivity
3,QVQLVESGGGLVQAGCSLRLSCAASGRTFPYYAMGWYRQAPGKERELVARIRSDGSTNYADSVKGRFTISRDNAKNTVYLQMNSLKPEDTAVYYCTADVGFEPPWYDWSWDNEYWGQGTQVSVSS,low polyreactivity
4,QVQLVESGGRLVQAGGSLRLSCAASGSTVGYNALGWYRQAPGKASELVAAITSRGSTNYADSVKGRFTISRDNAKNTVYLQMNSLKPEVTAVYYCAKATSSSEYGYDYWGQGTQVTVSS,high polyreactivity
5,QVQLVESGGGLVQAGGSLRLSCAASGRTFRSNAMGWYRQAPGKERELVATISGRGGSTYYADSVKGRFTISRDNAKNTVYLQMNSLKPEDTAVYYCNAYSVRLSGAELNYWGQGTQVTVSS,high polyreactivity
6,QVQLVESGGGLVQAGGSLRLSCAASGSIFPGNTMGWYRQAPGKERELVAGIDKNGGRTYYADSVKGRFTISRDNAKNTVYLQMNSLKPEDTAVYYCAADTWVFRRAFWTKYEYWGQGTQVTVSS,low polyreactivity
7,QVQLVESGGGLVQAGGSLRLSCDASGRTFGHKAMAWYRQAPGKEREFVAAITYSCVRTFYADSVKGRFTISRDNAKNTVYLQMNSLKQEDTAVYYCATDWRRDYDFWGQGTQVTVSS,low polyreactivity
8,QVQLVESGGGLVQAGGSLRLSCAASGYTFYANAMGWYRQATGKEREFVASITWSGGSTYYADSVKGRFTISRDNAKNTVYLQMNSLKPEDTAVYYCAAESWFKYDYWGQGTQVTVSS,low polyreactivity
9,QVQLVESGGGLVQAGGSLRLSCAASGSTFSANAMGWYRQAPGKERELVAAISRRGGSTNYADSVKGRFTISRDNAKNTVYLQMNSLKPEDTAVYYCAALYVPRSPFSYDYWGQGTQVTVSS,high polyreactivity
10,QVQVVESGGGLVQAGGSLRLSCAASGFTFPYYALGLYRQAPGKERELVAAITTGGSTYYSDSVKGRFTISRDNAKNTVYLQMNSLKPEDTAVYYCATGPSLWYRSSFRGEGDYWGQGTQVTVSS,low polyreactivity
11,QVQLVESGGGLVQAGGSLRLSCAASGFTFDLYAMGWSRQAPGKERELVASISSGGITYYADSVKGRFTITRDNANNTVYLQMNSLKPEDTAVYYCARDWRYGSWEGDDYWGQGTQVTVSS,low polyreactivity
12,QVQLLETGGGLVQAGGSLRLSCAPSGRIFRQYVMGWSRQAPGKERELVAAISRSGGTTYYADSVKGRFTISRDNAKNTVYLQMNILKPEDTAVYYCAASFRGQIVGYWGQGTQVTLSS,high polyreactivity
13,QVQHVESGGGLVQAGGSLRLSCAPSGRIFRYNAMGWYRQAPGKERELVAVISTRGGSTFYADSVKGRFTISRDNAKNTVYFQMNSLKPEDTAVYSCAAYRRHPFGGGYWGQGTQVTVSS,high polyreactivity
14,QVQLVESGGGLVQAGGSLRLSCAASGSIFCSYAMGWYRPAPGKERELVAAITQRGGRTYYADSVKGRFTISRENAKNTVYLQMNSLKPEDTAVYYCAAKNRISRPSPYDYWGQGTQVTVSS,high polyreactivity
15,QVQLVESGGGLVQAGGSLRLSCAASGFTFTKYAMGWYIQATGKERELVAAISRSGSSTYYADSVKGRFTISRDNAKNTVYLQMNSLKPEDTAVYYCAADNGYGDYYYWGQGTQVTVSS,high polyreactivity
16,QVQLVESGGGLVQAGGSLRLSCAASGSIFEQYTMGWYRQAPGKERELVAAISYSGGRTYYADSVKGRFTISRDNAKNTVYLQMNSLKPEDTAVYYCATRGRDRRIYGYWGQGTQVTVSS,high polyreactivity
